Results as given in patent US20250388669A1 (published 2025).
One block for each binder: values may come before it.

How the values were obtained:
B7H3 = target: T1, B7H3 (UniProt Q5ZPR3 29-466, limits assumed); assay: FCM or ELISA, graded
T1 sequence (looked up): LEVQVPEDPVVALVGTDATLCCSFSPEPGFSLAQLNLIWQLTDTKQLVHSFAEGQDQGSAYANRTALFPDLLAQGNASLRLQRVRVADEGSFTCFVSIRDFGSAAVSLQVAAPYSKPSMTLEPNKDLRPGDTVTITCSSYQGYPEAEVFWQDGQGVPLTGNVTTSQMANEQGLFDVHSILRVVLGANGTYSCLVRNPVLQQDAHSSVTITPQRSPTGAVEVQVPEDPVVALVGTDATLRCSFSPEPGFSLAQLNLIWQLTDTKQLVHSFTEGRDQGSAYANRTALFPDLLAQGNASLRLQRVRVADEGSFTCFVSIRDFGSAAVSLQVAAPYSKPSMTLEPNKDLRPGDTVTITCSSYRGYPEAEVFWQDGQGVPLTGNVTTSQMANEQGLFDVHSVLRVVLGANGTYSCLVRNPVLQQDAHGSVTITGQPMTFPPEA

CD40 = CD40 (UniProt P25942 21-193, limits assumed); assay: FCM or ELISA, graded
Sequence of CD40 (P25942 21-193 limits assumed): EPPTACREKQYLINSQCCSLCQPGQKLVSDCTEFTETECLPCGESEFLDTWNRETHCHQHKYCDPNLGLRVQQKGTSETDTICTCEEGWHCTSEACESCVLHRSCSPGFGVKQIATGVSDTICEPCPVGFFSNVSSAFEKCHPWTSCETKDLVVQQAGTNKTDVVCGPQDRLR

CD137 = target: T2, CD137 (human, UniProt Q07011 24-186); assay: CD137 binding (method not given)
T2 construct: In the reporter assay it is whole, on GS-H2-huCD137 cells; also called 4-1BB; huCD137

- binding result (B7H3): binds
- binding result (CD40): binds
B1: Ly2424 (bispecific antibody, human IgG1, kappa)
heavy 1: not shown
heavy 2: QVQLVQSGAEVKKPGASVKVSCKASGYTFTSYVMHWVRQKPGQGLEWIGYINPYNEGTESTDKFKGRATMTSDKSTSTVYMELSSLRSEDTAVYYCASIYYGYEGTYFGVWGQGTLVTVSSASTKGPSVFPLAPSSKSTSGGTAALGCLVKDYFPEPVTVSWNSGALTSGVHTFPAVLQSSGLYSLSSVVTVPSSSLGTQTYICNVNHKPSNTKVDKKVEPKSCDKTHTCPPCPAPEAAGPSVFLFPPKPKDTLMISRTPEVTCVVVDVSHEDPEVKFNWYVDGVEVHNAKTKPREEQYNSTYRVVSVLTVLHQDWLNGKEYKCKVSNKALPAPIEKTISKAKGQPREPQVYTLPPSREEMTKNQVSLSCAVKGFYPSDIAVEWESNGQPENNYKTTPPVLDSDGSFFLVSKLTVDKSRWQQGNVFSCSVMHEALHNRFTQKSLSLSPGGGGGSGGGGSGGGGSGGGGSDIQMTQSPSSVSASVGDRVTITCRASQGIYSWLAWYQQKPGKAPNLLIYTASTLQSGVPSRFSGSGSGTDFTLTISSLQPEDFATYYCQQANIFPLTFGGGTKVEIK
light: EIVLTQSPATLSLSPGERATLSCRASSSVSYMHWYQQKPGQAPRPWIYATSNLASGIPARFSGSRSGTDYTLTISSLEPEDFAVYYCQQWSSNTLTFGGGTKVEIKRTVAAPSVFIFPPSDEQLKSGTASVVCLLNNFYPREAKVQWKVDNALQSGNSQESVTEQDSKDSTYSLSSTLTLSKADYEKHKVYACEVTHQGLSSPVTKSFNRGEC
notes: B7H3 Fabs x terminal CD40 Fv (TM383)

- binding result (B7H3): binds
- binding result (CD40): binds
B2: Ly2428 (bispecific antibody)
heavy 1: QVQLVQSGAEVKKPGASVKVSCKASGYTFTSYVMHWVRQKPGQGLEWIGYINPYNEGTESTDKFKGRATMTSDKSTSTVYMELSSLRSEDTAVYYCASIYYGYEGTYFGVWGQGTLVTVSSASTKGPSVFPLAPSSKSTSGGTAALGCLVKDYFPEPVTVSWNSGALTSGVHTFPAVLQSSGLYSLSSVVTVPSSSLGTQTYICNVNHKPSNTKVDKKVEPKSCGGGGSGGGGSGGGGSGGGGSEVQLVESGGGLVQPGGSLRLSCAASGFTFTNYGLHWVRQAPGKGLEWVSSISPSGGVTYYRDSVKGRFTISRDNSKNTLYLQMNSLRAEDTAVYYCAKPFLGWGGANWIAHWGQGTLVTVSSGGGGSDKTHTCPPCPAPEAAGPSVFLFPPKPKDTLMISRTPEVTCVVVDVSHEDPEVKFNWYVDGVEVHNAKTKPREEQYNSTYRVVSVLTVLHQDWLNGKEYKCKVSNKALPAPIEKTISKAKGQPREPQVYTLPPSREEMTKNQVSLWCLVKGFYPSDIAVEWESNGQPENNYKTTPPVLDSDGSFFLYSKLTVDKSRWQQGNVFSCSVMHEALHNHYTQKSLSLSPG
heavy 2: QVQLVQSGAEVKKPGASVKVSCKASGYTFTSYVMHWVRQKPGQGLEWIGYINPYNEGTESTDKFKGRATMTSDKSTSTVYMELSSLRSEDTAVYYCASIYYGYEGTYFGVWGQGTLVTVSSASTKGPSVFPLAPSSKSTSGGTAALGCLVKDYFPEPVTVSWNSGALTSGVHTFPAVLQSSGLYSLSSVVTVPSSSLGTQTYICNVNHKPSNTKVDKKVEPKSCGGGGSGGGGSGGGGSGGGGSDIQMTQSPSSLSASVGDRVTITCLASEDISNDLAWYQQKPGKAPKLLIYFVDRLLDGVPSRFSGSGSGTDFTLTISSLQPEDFATYYCQQSYKYPPTFGQGTKLEIKGGGGSDKTHTCPPCPAPEAAGPSVFLFPPKPKDTLMISRTPEVTCVVVDVSHEDPEVKFNWYVDGVEVHNAKTKPREEQYNSTYRVVSVLTVLHQDWLNGKEYKCKVSNKALPAPIEKTISKAKGQPREPQVYTLPPSREEMTKNQVSLSCAVKGFYPSDIAVEWESNGQPENNYKTTPPVLDSDGSFFLVSKLTVDKSRWQQGNVFSCSVMHEALHNRFTQKSLSLSPG
light: B1 light
notes: B7H3 Fabs x central CD40 Fv (TM559)

- binding result (B7H3): binds
- binding result (CD40): binds
B3: Ly2434 (bispecific antibody, human IgG1, kappa)
heavy 1: QVQLVQSGAEVKKPGASVKVSCKASGYTFTSYVMHWVRQKPGQGLEWIGYINPYNEGTESTDKFKGRATMTSDKSTSTVYMELSSLRSEDTAVYYCASIYYGYEGTYFGVWGQGTLVTVSSASTKGPSVFPLAPSSKSTSGGTAALGCLVKDYFPEPVTVSWNSGALTSGVHTFPAVLQSSGLYSLSSVVTVPSSSLGTQTYICNVNHKPSNTKVDKKVEPKSCDKTHTCPPCPAPEAAGPSVFLFPPKPKDTLMISRTPEVTCVVVDVSHEDPEVKFNWYVDGVEVHNAKTKPREEQYNSTYRVVSVLTVLHQDWLNGKEYKCKVSNKALPAPIEKTISKAKGQPREPQVYTLPPSREEMTKNQVSLWCLVKGFYPSDIAVEWESNGQPENNYKTTPPVLDSDGSFFLYSKLTVDKSRWQQGNVFSCSVMHEALHNHYTQKSLSLSPGGGGGSGGGGSGGGGSGGGGSEVQLVESGGGLVQPGGSLRLSCAASGFTFTNYGLHWVRQAPGKGLEWVSSISPSGGVTYYRDSVKGRFTISRDNSKNTLYLQMNSLRAEDTAVYYCAKPFLGWGGANWIAHWGQGTLVTVSS
heavy 2: QVQLVQSGAEVKKPGASVKVSCKASGYTFTSYVMHWVRQKPGQGLEWIGYINPYNEGTESTDKFKGRATMTSDKSTSTVYMELSSLRSEDTAVYYCASIYYGYEGTYFGVWGQGTLVTVSSASTKGPSVFPLAPSSKSTSGGTAALGCLVKDYFPEPVTVSWNSGALTSGVHTFPAVLQSSGLYSLSSVVTVPSSSLGTQTYICNVNHKPSNTKVDKKVEPKSCDKTHTCPPCPAPEAAGPSVFLFPPKPKDTLMISRTPEVTCVVVDVSHEDPEVKFNWYVDGVEVHNAKTKPREEQYNSTYRVVSVLTVLHQDWLNGKEYKCKVSNKALPAPIEKTISKAKGQPREPQVYTLPPSREEMTKNQVSLSCAVKGFYPSDIAVEWESNGQPENNYKTTPPVLDSDGSFFLVSKLTVDKSRWQQGNVFSCSVMHEALHNRFTQKSLSLSPGGGGGSGGGGSGGGGSGGGGSDIQMTQSPSSLSASVGDRVTITCLASEDISNDLAWYQQKPGKAPKLLIYFVDRLLDGVPSRFSGSGSGTDFTLTISSLQPEDFATYYCQQSYKYPPTFGQGTKLEIK
light: B1 light
notes: B7H3 Fabs x terminal CD40 Fv (TM559)

- EC50 (CD137): 0.08 µg/mL
B4: Ly1630 (antibody, V domains shown)
VH: QVQLVQSGAEVKKPGASVKVSCKASGYTFAGFEMHWVRQAPGQGLEWMGAIDPKTGGTDYNQKFKDRVTMTRDTSISTAYMELSRLRSDDTAVYYCARDLGYFDVWGQGTLVTVSS
VL: DIQMTQSPSSLSASVGDRVTITCRASQDIRSNLNWYQQKPGGAVKLLIYYTSRLHSGVPSRFSGSGSGTDYTLTISSLQPEDFATYFCQQSEKLPRTFGGGTKVEIR
notes: Parent mAb; also called Anti-CD137 Ly1630; parent anti-CD137 mAb
